The series in a line: protease stability score; higher = more stable; yeast display proteolysis, trypsin and chymotrypsin.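 Note: relative to predicted unfolded state with 0 unfolded-like and 1 meaning tenfold more protease.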
With “SEEEDDLQHYIDVLRHILHTGDWQKFSEMADPTVKLKINGVEYHGREKLAHMLKKHLEELGYTRIEVELRSITIQGEFIKSDIKLDVNGQELRVRVDFYKINGKWSMTFLQIE”, the protease stability score was found to be 1.45. The same measure for “SEEEDEIRKMLEEVLKNWRTGNEERIYELADPNTRVEIDGREHHGRHVVAHLIKEWRIHDFILRRVDVQGNKVIIHGELEGEFDGKRTNLHTNLVLVKIDGRWVIESLHYV”: 1.41; for “SEEEDESEEMARLFVKANITGDEKFLYHMADPHVRIHIHQGNKYIELHGREKLEYWLKEWLEKFKNIRYTINDMKVVGEKVTIESTLQIGDKRIHMQIVIVVINGRIHKFEFHLH”: 0.755; for “SEEEDESKLATELLIKLLRTGNEHLSERLMDPNMRIVVNGVELHGREEAQRHMREMITQIKNAKIEIRDERTQGEYIKVNMILHYGDKTIDLRVVLVKVDGRWKITEIVLN”: 1.8. In turn, “SEEEDFMRQVYHWFLELWLTGDEDIFKKLADPDTLLDWNGVQSVGMEEFHRLLHEMEERLGVKHKEYKRFRIQGNKVHLDLVHEFNGRRIKTEIVVVVVNGRFKEIRIRHH” returned a protease stability score of 1.79. Sequence “SEEEDHAKEMFRILIENLITGDEDTLRKLIDPDVRFIYGDKLHVGWKDFREWQHRMDRRVKNMKIHVRDMRVYNGVSHAETEEHYNGKTVETEVHFKVIDGQLKHLEIRIH” came in with a protease stability score of 0.188. In the case of “SEEEDHIREFLLLIIHAFRTGDEEFFERNVDPNVRLHSDVDGRELQLHGRDEFSRYFHHFRHRAGIDHIEDKRVTSQGDKIIVHGWSIVGDKIHHLELHFIVIDGQVHTVEIRPK” it was 1.28.

As for “SEEEDHIRRAIERFSKDQETGDEDSIRELLDPHVRMHVDGQELIGRDLILKFWSELRVHHWEMHSVRVVGDYVDFDVTLDMRVGDKSHRIKATLIILKIDGRWILKLVIID”, the protease stability score worked out at 1.19. In the case of “SEEEDISRNLLEIFLRVLLTGDEHAISRLLDPRVLVIFHFENRDIILHGRSNVLKWLHDRLREIRINDWSVKSVEVQGNKAHQDTRIDIIIGDKKIDKEVEVNITVVDGKVKHLEIRVH” it was 2.21; in that of “SEEEDKARHLFDRLVHAWHTGDWRELKHLLDPNAKFVLEYGDKKETYHGMDEEIRYLEELHKRVDHIHFLIRHVDIQGDKLRVEGELEYRVGDYERRIPTSYEVIVIDGRIHEIISRIH”, 2.11.

Regarding “SEEEDLFRKIIELLLRLSKTGDEETWRRLMDPHARLEINGRIFHGREYAERFMTQFDHIHSIEIKDMHIYNGKVEEHGHVDGIVNGRRTKHDMVFILVKVDGVWLIEEVVVR”, the protease stability score stood at 1.39. In the case of “SEEEDLHRHIMRLFLEWVLTGDEEDLYHFADPHTQFRYGDYELHGMEKIVEEILRFTHELRITHFTIHQMDVFNGKAESDVEWHKDVNGQEVRFRLKLILIVINGRTKSIEIRHK” it was 1.23. In the case of “SEEEDLMRHLTELYIRAFETGDEDHLRKLADPHVRLHVDIDGKRLDFHGMEQTSEWWERMGIDVHHLHHHEFIGDKSHIDSEVVFNGRKRKFEINVVIVNGRIKSERHIFK” it was 0.691. For the sequence “SEEEDLVQKAFEIFVHDIRTGDEDSLIENADPNVRLLINGVIFHGREEFKFIMRHWRIRRIELHDYRIQGDKAHVESRMDIEFNGRIRITHVELVILKVNGQWLIHTIKVI”, the protease stability score was 0.454. For the sequence “SEEEDLWKEFLRRLVETSNTGNERILSELFDPRTRIIYNGVDYVGREWALFMFLRADHVHIRIKSVDVQGEKAHVDGRMIQFVGDKEERHEVQLIDVKIDGRWLIRMMTVR”, the protease stability score was 1.51. The same measure for “SEEEDMARHFNELFIKMLKTGNEEEIKKMADPEVRIIIDVGDYIERDHGWEVLKREREWLGIKHIDIERAEIRVFDGRVHLKLDGRSNVNGKEIEVEIINDTEKINGRWRMKNLRYIFK”: 1.08. In the case of “SEEEDMKRKLAEIFLHNELTGNEDRLMELLDPNTRMEFNGREVHGREQISEVLRRWLEEIRIDDSKLHDIRVINGVAHIDVRLRGTVDGRHTILQVHLYLFVVNGRIKSFRIEIR” it was 1.53; in that of “SEEEDQARKIMEILIHVFLTGDWHQLMRLLDPNTRYEIRFENHEEHNHGREDIVRWLIEFIEEMRTLVIIRHIEVQGDKAILDIELQLDINGREFRWKTLLHFRIVDGVLKMYYIHIE”, 1.47; in that of “SEEEDRIRQALELELHYLRTGDEDSTRRLIDPHMKLTVNGKEHHGMDWFIEELRRVDHIEMHPHHIHSFGEKAHIRVKLTLHFDGVTFERDVTIVFHKVDGRWVIESMQLD”, 1.

Sequence “SEEEDTADEAIKLWLKLFITGDERTLARMMDPNTLNVVGDKEFHGWQFIIELVHKLFEEIRIHELTVEHLHVQGDKVRIDIRIDSRQGDKRHETKVEVILRKVNGRWTVEVIEIH” displayed a protease stability score of 2.39. In the case of “SEEEDTMRHLLHLLIEWELTGDWKNWQKLADPRTRIEINGRELHGRETYAEFIREVLEQFKNLVIHDFIMHDVKVFDGRVIVDGYVDTEINGVRTHIRVEFILIVVNGKLRRVSRIVR” it was 1.57; in that of “SEEEDYMRELAERFLHAFITGDWQFIYKMFDPRVRWNVDGQNFVGREQLVHHLEKIKREMRVRHFELKDIKIIDGVSFINGRVDTTYGDKSSEHEVHISLVLIDGRVKHVQIRLE”, 2.34. In the case of “SEEEEAARHVLEEWLRSIRTGDEEFTERLLDPEARFHVNGVEIIGREHIIRRLREIRIHDIKMDVREIRIVDGRISIDVTYRIDGEVNGVKVDTSHEVRLVFVKINGRWLNRKEEVR” it was 1.66; in that of “SEEEEAEREFWEEFLRTSRTGDEELFEELIDPNVKIDINGRDLHGMEEALDTFRELRIKDIKVKHVEEQGDKIILDGRVDGIFDGKYDRVEVTFFVLKIDGRWVYHSIRLE”, 1.13. With “SEEEEAKRDLDERWFRSIETGDFHTLEKLLDPHAKVRINGKDYHGREYLEWEIRDLGVKVMEQRVIIHREHRQGDKIHLQGEIIRILHVDGREEHHRFEVHYVMLKINGRWILHRMEFR”, the protease stability score came out at 0.883. “SEEEEATKEMSRLVLENLKTGDFDAFHRLFDPNAKLDVGDKHFHGREQIHEWYLHVREELGVDVSRVHEKHIQVIGNKVILHGELHLRIGDKRDDTTMWIVSKKFDGRWILSSMRIS” displayed a protease stability score of 1.32. The same measure for “SEEEEDAEEFSRLFAELMKTGDEESLHRLADPDVRLHYGDKDHHGREQYTESWKRILDELGVDNVRIELKSVRVINGVVYVDSLVRVGDKTFRLIVIFRKINGRWRLESVKVE”: 1.29; for “SEEEEDAERAERLIFEYHRTGDERLFRELVDPNVRLRVGDKEYHGREDFLRIMLELRIDRMHLHEIRVVDGRVHSRTEVDGTWNGRKFLTETESIIIKINGRWVLHSFHFH”: 1.69. The same measure for “SEEEEDAHRNIELLVRYLITGDEETVSRLVDPHVKTDINGQEDHGWQIMSILMEKFKNVTLRLHDIETQGNFAVINMKMRFNGQTFDLHFFARKVNGRWFVEHIKIRQN”: 1.62; for “SEEEEDARQAFEEYTESLKTGDEDTLDRLLDPDTLLIINGREIHGMEEAIRIWHVWLRHMRFRSQEMRRIRVIDGKIDIESRSIIDINGREVDLRVHYILHKVNGRWLIESVRFE”: 2.38. Turning to “SEEEEDARRAFEMWFRVLMTGDEDQVDRLMDPHVRVDINGVDLHGRTTIRRLIHEEFNRADVRSFDVEHVDYQGDWVRLEVRLILVFNGKRLELKMELISRKINGRWILESQVVE”, the protease stability score is 1.39. In the case of “SEEEEDARRMMEILIKTLKTGDWRTIRRLVDPNVRVDFNGVDDHGRENWLKHVLHIRFKRIYIRDVRVYDGRVHIHGEINIEFDGRSDHYEVEIHIDKVDGRWVITHILIV” it was 2.26; in that of “SEEEEDIRKFLEDHHRAFATGDEKRLTELMDPNVRFDVNGVDRHGRELAVEMLHKQREEMGIDHLETIEMQDHEVYGDYIHLDVEVHIRVNGKRHILKRRILWLKINGRWTIKHEQLR”, 0.464.

“SEEEEDIRRLEEMLTKNLLTGNEHKLRRLADPHVQIHINGVDIVGMEWMVQVRREMRVEHVDSRIDDVRVIGDKAEVDGTLIIVGEVDGQRTNETIRIHRVFEKVNGRWILHSETFI” displayed a protease stability score of 1.15. In the case of “SEEEEDLKTMSDFVLHLFETGDEDIFNHFADPDARLHIGDKIAHGREHFKRVFEDLMHRLGVDHIEIRRRSITIIGDKVHAHVDGLTVIGDKVHHVELRFVIVKYNGRWFLKRVEVHNR”, the protease stability score amounted to 1.71. In the case of “SEEEEDMRKAHEFVDKLIHTGDEDETRRYADPNVLVTINGRRWVGRDDYVEVLREILHRADHVHLHEKSIRIVDGVVQINSNLFIKQGDKEIHLDIRFHIRKVNGRWDMKRMEIR” it was 1.64; in that of “SEEEEDRRIAVEEMLRYWHTGDEEDLNRLFDPNVRADFNGKDLVGREHMKEHYERLGYDKFDVRVKDVRVIGDKVEMDGHLRFDGVERDLHIFVIKVNGRWLVKHTEYR”, 0.904; in that of “SEEEEDSLIAWKLYFEIEQTGDEKSLEHYMDPDTRYSQGEFRMHGREYTYHIIFRNRKRLGWDRVEVRLHSYEIINGRIKLDMRVHVNGVDINLLVIAFKFNGKWTIETVRIE”, 1.36. The same measure for “SEEEEDTERALRLELNLLMTGDEEQFWKNMDPHVRTHFNGQERHGREYATHVLRQLGVKHVRLHDVRIIGDKIDIDMRTNVDGRIFRVHIHSEKVNGRWHIHEFFIE”: 1.07; for “SEEEEDTERAMELAHHLLFTGNWEIMLKLFDPHMRLEFNGVDNHGREQVIREIRERIKLLGITNIELEPEEVRVQGDKVILHSRVDYNGKHYETEFVAEKVDGRWFIRSMRYE”: 1.3; for “SEEEEDVRIALLMLEHTMRTGDEEDTREMADPNVRVEVGDKELHGRELYVEWFHRLGVKHFDIREVRFIGDKVNIRGISHVNGRNYHVVLHARKIDGRWHLTLWEMR”: 1.41. In the case of “SEEEEDVRKFVHMLMLSFITGDWKMLWEMLDPEVRLHVGDKTIIGRERFVSFMQRLLRELRIKDFHVDSIEIQGEKAIIHTTLHIVIGEKEEDRYVRYIVIKIDGRWLIHRVHIH” it was 2.74; in that of “SEEEEEADRLEEHWVKSLLTGDEEELAKNADPNTRLDIDGKIVHGMEHFIRFFSEIFKRVDHTEIRIRDSKFDGDKIHNRVEILIRFNGRTIRIDVRIIMRKVDGRWIHESMHIE”, 1.9.

The sequence “SEEEEEAERAIKLWIHNVLTGDEDSLTKLLDPHVKIIDYVNGVEINNHGREWVKHWLEHLRYDIIRIHEFRSQGDKVHVDGKSEGNYNGKHVETRVMFHLHVYNGVIKSVHIIHI” displayed a protease stability score of 1.63.

On to “SEEEEEAERIYRNWLHNLHTGNEESERLMADPDVRYEINGVERVGWEEVHHFLREIRVHLRHVEIKHSDLINGRAHIEGHVDMEVRVNGVTMRIRTDTILRVVVIDGRLKSVSQEIL”, for which the protease stability score came out at 0.648. The same measure for “SEEEEEAHKFIEDWRTALETGDFDSIKELIDPNVRLHIGDKDLVGREEWVRELRRRKERYKGLRLKVHIKHVDIFDGRLIVDAEIRIDIGDKHLHYRVHIFVHKVNGRWQMKRYEEE”: 2.57; for “SEEEEEAHRYQEEWKRVHRTGDEDRFRELMDPNVRIHLNINGKNIHLHGRQLAVDFLRHIHLHWRDHEIHTHDIRHFNGVTHVTGRLDGEVNGRRIDTHVEFHHHVFNGRIKSIIIIVH”: 1.33.

Values taken from the NTF2 design screens of Basanta et al. (2020).
